B1: DARPin 926 (designed binder)
chain: MRGSHHHHHHGSDLGKKLLEAARAGQDDEVRILMANGADVNAKDFYGITPLHLAAAYGHLEIVEVLLKHGADVNAHDWNGWTPLHLAAKYGHLEIVEVLLKHGADVNAIDNAGKTPLHLAAAHGHLEIVEVLLKYGADVNAQDKFGKTAFDISIDNGNEDLAEILQKLN
notes: Member of the 9XX collection
B2: 9_29-(G4S)4-G3 (designed binder)
chain: MRGSHHHHHHGSDLGKKLLEAARAGQDDEVRILMANGADVNAHDFYGITPLHLAANFGHLEIVEVLLKHGADVNAFDYDNTPLHLAADAGHLEIVEVLLKYGADVNASDRDGHTPLHLAAREGHLEIVEVLLKNGADVNAQDKFGKTAFDISIDNGNEDLAEILQKLGGGGSGGGGSGGGGSGGGGSRSDLGKKLLEAARAGQDDEVRILMANGADVNAKDEYGLTPLYLATAHGHLEIVEVLLKNGADVNAVDAIGFTPLHLAAFIGHLEIAEVLLKHGADVNAQDKFGKTAFDISIGNGNEDLAEILQKLN
modifications: fluorescently labelled in FIG. 18A (dye and site not carried by the letters)
notes: 20 amino acid (G4S)4 linker; also called 9_20_G
B3: 9_26-(G4S)4-G3 (designed binder)
chain: MRGSHHHHHHGSDLGKKLLEAARAGQDDEVRILMANGADVNAKDFYGITPLHLAAAYGHLEIVEVLLKHGADVNAHDWNGWTPLHLAAKYGHLEIVEVLLKHGADVNAIDNAGKTPLHLAAAHGHLEIVEVLLKYGADVNAQDKFGKTAFDISIDNGNEDLAEILQKLGGGGSGGGGSGGGGSGGGGSRSDLGKKLLEAARAGQDDEVRILMANGADVNAKDEYGLTPLYLATAHGHLEIVEVLLKNGADVNAVDAIGFTPLHLAAFIGHLEIAEVLLKHGADVNAQDKFGKTAFDISIGNGNEDLAEILQKLN
modifications: fluorescently labelled in the dissociation assay; dye and site not stated
notes: 20 amino acid (G4S)4 linker; also called 6_20_G
B4: DARPin H14 (designed binder)
chain: GSDLGKKLLEAARAGQDDEVRILMANGADVNATDIHGHTPLHLAAAMGHLEIVEVLLKNGADVNANDWRGFTPLHLAALNGHLEIVEVLLKNGADVNATDTAGNTPLHLAAWFGHLEIVEVLLKNGADVNAQDKFGKTAFDISIDNGNEDLAEILQKLN
B5: G3-(G4S)4-9_26 (designed binder)
chain: MRGSHHHHHHGSDLGKKLLEAARAGQDDEVRILMANGADVNAKDEYGLTPLYLATAHGHLEIVEVLLKNGADVNAVDAIGFTPLHLAAFIGHLEIAEVLLKHGADVNAQDKFGKTAFDISIGNGNEDLAEILQKLGGGGSGGGGSGGGGSGGGGSRSDLGKKLLEAARAGQDDEVRILMANGADVNAKDFYGITPLHLAAAYGHLEIVEVLLKHGADVNAHDWNGWTPLHLAAKYGHLEIVEVLLKHGADVNAIDNAGKTPLHLAAAHGHLEIVEVLLKYGADVNAQDKFGKTAFDISIDNGNEDLAEILQKLN
modifications: fluorescently labelled in FIG. 18A (dye and site not carried by the letters)
notes: Opposite orientation of 6_20_G; also called G_20_6
B6: DARPin G3 (designed binder)
chain: GSDLGKKLLEAARAGQDDEVRILMANGADVNAKDEYGLTPLYLATAHGHLEIVEVLLKNGADVNAVDAIGFTPLHLAAFIGHLEIAEVLLKHGADVNAQDKFGKTAFDISIGNGNEDLAEILQKLN
B7: DARPin 929 (designed binder)
chain: MRGSHHHHHHGSDLGKKLLEAARAGQDDEVRILMANGADVNAHDFYGITPLHLAANFGHLEIVEVLLKHGADVNAFDYDNTPLHLAADAGHLEIVEVLLKYGADVNASDRDGHTPLHLAAREGHLEIVEVLLKNGADVNAQDKFGKTAFDISIDNGNEDLAEILQKLN
modifications: Alexa Fluor-488 label in the flow-cytometry kinetics (attachment site not given)
notes: Member of the 9XX collection

Experiments:
[1] = target: T1, HER2 (form in the assay not stated) (human, UniProt P04626 23-652, limits assumed); assay: method not stated
[2] = target: T1, HER2 (form in the assay not stated); assay: method and HER2 form not stated
[3] = target: T2, HER2 (ErbB2/Neu) on the surface of HER2-overexpressing cancer cells (human, UniProt P04626 23-1255); assay: dissociation from BT474 cells by flow cytometry in the presence of a competing DARPin
T2 construct: whole, on cells; also called HER2 on BT474, SkBr3, SkOv3 cells

[4] = target: T2, HER2 (ErbB2/Neu) on the surface of …; assay: flow cytometry on intact BT474 cells, Alexa488-labelled agent
Experimental: Cells were detached by collagenase and EDTA for 5 min at 37° C. The solution was quenched by addition of medium and centrifuged at 300 g for 3 min. Cells were washed twice in warm PBS. […] Internalization was blocked by incubation in PBS containing 0.2% NaN₃ and 1% BSA for 30 min at 37° C.
For each time point, a 1 ml aliquot of cells is withdrawn and subjected to FACS. Since the applied concentrations of the labeled ligand conjugates are very low, and since the time resolution of the measurement is to be maintained to ensure the accuracy of the on-rate determination, the samples are processed without further washing. For each time point, at least 10⁴ intact cells (gated as a uniform population on a FSC/SSC scatter plot) are counted, and the MFI (mean fluorescence intensity) is recorded.
Corresponding to 100 μl cell suspension, samples were washed twice in 1 ml PBS (0.2% NaN₃, 1% BSA) and centrifuged at 600 g for 30 sec at room temperature. Cells were resuspended in 1 ml PBS (0.2% NaN₃, 1% BSA) containing 100 nM of equivalent unlabeled binding agent. The dissociation reaction was incubated for the indicated times (15, 30, 60, 120, 180 and 240 min) at room temperature while continuously stirring in the dark. Dissociation was stopped by placing the cell pellets on ice. Each sample was washed once with 1 ml cold PBS.

Binder | Kd [1] [nM] | Kd [2] [nM] | koff [2] [s⁻¹] | kon [2] [M⁻¹ s⁻¹] | fold lower off-rate than monovalent G3 [3] [fold] | Kd [4] [nM] | koff [4] [s⁻¹] | kon [4] [M⁻¹ s⁻¹]
B1 | 1 | 1.4 | 0.0001 | 70000 | – | – | – | –
B2 | – | – | – | – | 10 | – | – | –
B3 | – | – | – | – | 10 | – | – | –
B4 | – | 0.2 | 0.0001 | 410000 | – | 0.97 | 0.000179 | 196000
B5 | – | – | – | – | 10 | – | – | –
B6 | 0.09 | – | – | – | – | – | – | –
B7 | 1 | 3.8 | 0.0008 | 200000 | – | 33.5 | 0.00221 | 69000
